These results are taken from US20110171220A1 (published 2011).

B1: Clone 10 anti-PD-1 antibody (antibody, V domains shown)
VH: DVQLQESGPGLVKPSQSLSLTCTVTGYSITSDYAWNWIRQFPGNKLEWMGYINYSGSTSYNPSLKSRISITRDTSKNQFFLQLNSVTTEDTATYYCARWIGSSAWYFDVWGAGTTVTV
VL: DVLMTQTPLSLPVSLGDQASISCRSGQNIVHSNGNTYLEWYLQKPGQSPKLLIYKVSNRFFGVPDRISGSGSGTDFTLKISRVEAEDLGVYFCFQGSHVPFTFGSGTKLEIK
B2: Clone 2 anti-PD-1 antibody (antibody, V domains shown)
VH: QVQLQQPGAELVKPGASVKLSCKASGYTFTTYYLYWVRQRPGQGLEWIGGINPSNGGTNFNEKFKSKATLTVDKSSSTAYMQLNSLTSEDSAVYYCTRRDYRYDRGFDYWGQGTSVTV
VL: DIVLTQSPASLAVSLGQRATISCRASKSVSTSGFNYIHWYQQKPGQPPKLLIYLASNLESGVPARFSGSGSGTDFTLNIHPVEDEDAATYYCQHSRELPLTFGAGTKLEIK
B3: Clone 19 anti-PD-1 antibody (antibody, V domains shown)
VH: QVQLQQSGAELVKPGASVKMSCKAFGYTFTTYPIEWMKQNHGKSLEWIGNFHPYNDDTKYNEKFKGKAKLTVEKSSTTVYLELSRLTSDDSAVYYCARENYGSHGGFVYWGQGTLVTV
VL: ENVLTQSPAIMSASPGEKVTMTCRASSSVISSYLHWYQQKSGASPKLWIYSTSNLASGVPDRFSGSGSGTSYSLTISSVEAEDAATYYCQQYNGYPLTFGAGTKLEIK

As a reminder, the koff is the first-order rate constant of dissociation. A high value points to fast dissociation.

In the assay the target is Monomeric soluble human PD-1 (human, UniProt Q15116 25-170). Briefly: SPR; pH 7.4. A general note: In SPR one partner is held on a chip, and binding of the other changes the refractive index at the surface.
Monomeric soluble human PD-1, sequence (Q15116 25-170): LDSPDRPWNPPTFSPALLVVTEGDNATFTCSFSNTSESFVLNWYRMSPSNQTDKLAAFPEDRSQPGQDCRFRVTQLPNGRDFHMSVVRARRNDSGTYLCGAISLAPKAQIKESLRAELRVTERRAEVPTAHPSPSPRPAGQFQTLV
The molecule B1 yielded a koff of roughly 0.4 s⁻¹.
B2 gave a koff of roughly 0.0027 s⁻¹.
Turning to B3, the dissociation rate constant (koff) was roughly 0.0013 s⁻¹.
